# B1: anti-IL-4R:anti-CD63 conjugate (streptavidin-conjugated anti-IL-4R antibody combined 1:1 with biotinylated anti-CD63 antibody MEM-259) (protein, part only; not given: anti-CD63 antibody MEM-259, part only)
# VH: EVQLVESGGGVVQPGRSLRLSCVASGFTFSDYGMHWVRQAPGKGLEWVAVIWYDGSIKYFRDSVKGRFTISRDNSKNTLYLQMNSLRVEDTAHYYCAKESSSWYFYHGLDVWGQGTMVTVSS
# VL: EIVMTQSPLSLPVSPGEPASISCRSNQSLLHSNGNNYLAWYLQKPGQSPHLLIYLGSNRASGVPDRFSGSGSGTDFTLKISRVEAGDVGTYFCMQSLQAPPFTFGPGTKVEIKR
# modifications: antibody conjugated to streptavidin
# Biological target: IL-4R (UniProt P24394)
# Assay: cell-based or functional assay
binder,measurement,value
B1,attenuation of IL-4R activity beyond the control constructs,> 10%

# Reference: patent US20220008548A1
